According to patent publication US20170056486A1:

Molecular target: HLA-A*24 (human)
Assay: UV-exchange ELISA (anti-b2m); yield 50%-75%

peptide exchange yield [%]	Binder
50 to 75	GYISNGELF
50 to 75	DYLKDPVTI
50 to 75	EYNSDLHQF
50 to 75	NYSPGLVSLIL
50 to 75	EYQEIFQQL
50 to 75	KYGNFIDKL
50 to 75	QYLELAHSL
50 to 75	VYQKIILKF
50 to 75	LYPQLFVVL
50 to 75	AYAQLGYLL
50 to 75	EYNSDLHQFF
50 to 75	VYLPKIPSW
50 to 75	TYGKIDLGF
50 to 75	TFDGHGVFF
50 to 75	KYLNENQLSQL
50 to 75	SYLELANTL
50 to 75	RFPVQGTVTF
50 to 75	KYQNVKHNL
50 to 75	RYFKGDYSI
50 to 75	SYTSVLSRL
50 to 75	IYGEKLQFIF
50 to 75	NYAFLHRTL
50 to 75	IYGFFNENF
50 to 75	VYTKALSSL
50 to 75	YYFFVQEKI
50 to 75	SYLTQHQRI

Continued, binder first:

Binder	peptide exchange yield [%]
RFIGIPNQF	50 to 75
VFGKSAYLF	50 to 75
SYLPAIWLL	50 to 75
TYADIGGLDNQI	50 to 75
VYVGDALLHAI	50 to 75
VYFEGSDFKF	50 to 75
TYPSQLPSL	50 to 75
FYIPHVPVSF	50 to 75
VFDTSIAQLF	50 to 75
VYGEPRELL	50 to 75
IYVTGGHLF	50 to 75
NYLVDPVTI	50 to 75
FYTFPFQQL	50 to 75
QYPYLQAFF	50 to 75
IYAPTLLVF	50 to 75
VYVIEPHSMEF	50 to 75
YYLGSGRETF	50 to 75
IYLEHTESI	50 to 75
QYGGDLTNTF	50 to 75
KYVGQLAVL	50 to 75
VHFEDTGKTLLF	50 to 75
VYAIFRILL	50 to 75
VFSPDGHLF	50 to 75
VYPAEQPQI	50 to 75
KYTDYILKI	50 to 75

Binder	peptide exchange yield [%]
VWLPASVLF	50 to 75
YYSEVPVKL	50 to 75
VYKDSIYYI	50 to 75
VYAEVNSL	50 to 75
IYNPNLLTASKF	50 to 75
LYLPVHYGF	50 to 75
IFHEVPLKF	50 to 75
KYQYVLNEF	50 to 75
YYSQESKVLYL	50 to 75
KYTDWTEFL	50 to 75
LYSVIKEDF	50 to 75
NYLGGTSTI	50 to 75
TYSNSAFQYF	50 to 75
SYLVIHERI	50 to 75
VYTHEVVTL	50 to 75
QYSIISNVF	50 to 75
SFTKTSPNF	50 to 75
VYNEQIRDLL	50 to 75
GYAFTLPLF	50 to 75
SYVKVLHHL	50 to 75
RYILENHDF	50 to 75
KYLESSATF	50 to 75
IFIDNSTQPLHF	50 to 75
EYNEVANLF	50 to 75
